Assays:
[1] = tested on: T1, SAStide-Cy5 (Syk Artificial Substrate peptide conjugated with Cy5)
T1 sequence: GGDEEDYEEPDEPGGCGG

[2] = tested on: T2, 5-FAM-SFAStide-A (Src-Family kinase Artificial Substrate peptide)
T2 sequence: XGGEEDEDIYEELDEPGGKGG

Substance	ELISA-based chemifluorescence (anti-phosphotyrosine 4G10, HRP secondary, Amplex Red) of an in vitro kinase reaction [1]	TR-LRET emission (5-FAM fluorescence signal) in the in vitro kinase reaction with Syk only [2]	TR-LRET emission (Cy5 fluorescence signal) over the time course of an in vitro kinase reaction [1]
Syk-EGFP	the ELISA-based assay displayed increasing fluorescent signal over time for the appropriately match substrates	–	–
Syk-His6 (His6-tagged spleen tyrosine kinase)	–	with minimal bleed through or background interference from the fluorophore attached to the other biosensor	TR-LRET emission spectra for each respective biosensor displayed an increase in the conjugated dye's fluorescence signal

From patent US20160097084
